Measurements as given in patent US20250255960A1 (HRAIN BIOTECHNOLOGY, published 2025).
Positions count from the first letter of the chain named. One block for each binder: values may come before it.

What was measured:
[1] = molecular target: T1, Fc-labeled CD70 antigen; assay: flow cytometry: CAR-transduced T cells stained with Fc-labeled CD70 antigen (1:100) and secondary antibody PE-Fc; NT control 0.61
T1 construct: soluble antigen used at 1:100 to stain CAR-T cells; also called detected with the secondary antibody PE-Fc (axis label PE-Fc)
T1 sequence (P32970 whole entry, species assumed, looked up): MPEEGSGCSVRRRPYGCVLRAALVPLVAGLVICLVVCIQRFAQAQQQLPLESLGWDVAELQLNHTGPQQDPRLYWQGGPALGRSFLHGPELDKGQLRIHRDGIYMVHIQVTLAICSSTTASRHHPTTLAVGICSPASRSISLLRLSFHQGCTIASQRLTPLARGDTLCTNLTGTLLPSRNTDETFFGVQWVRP
Method: The CAR positive rate of the retrovirus-infected T lymphocytes were detected 72 hours after virus infection. For the chimeric antigen receptor group containing CD70-2A5-BBz, CD70-5C10-BBz, CD70-8A6-BBz, CD70-8B4-BBz, CD70-8E1-BBz, CD70-8F9-BBz, CD70-9D8-BBz, CD70-11C9-BBz and ARGX-BBz clone and the negative uninfected control group NT, 1×10⁶ cells from the above two groups respectively, were taken and centrifuged to remove the medium, the cells were washed once with PBS, and resuspended in 100 μL of the flow loading tube (BD). Fc-labeled CD70 antigen (1:100) was added and incubated for 30 minutes at 4° C. After washing the cells once with PBS, the secondary antibody PE-Fc was added according to the recommended ratio and incubated for 30 minutes in the dark. After the cells were washed once with PBS, the cells were resuspended in 200 μL of PBS and tested on the machine. The results of flow cytometric analysis of CAR-T positive rate are shown by FIG. 11.

[2] = molecular target: T1, Fc-labeled CD70 antigen; assay: flow cytometry: CAR-transduced T cells stained with Fc-labeled CD70 antigen (1:100) and secondary antibody PE-Fc; NT control 0.79
Method: The CAR positive rate of the retrovirus-infected T lymphocytes was detected 72 hours after virus infection. For the chimeric antigen receptor group containing CD70-2A5-BBz, CD70-8B4-BBz, CD70-9D8-BBz, CD70-11C9-BBz and ARGX-BBz clones and the negative uninfected control NT, 1×10⁶ cells from the above two groups respectively, were taken and centrifuged to remove the medium, washed once with PBS, and resuspended in 100 μL in a flow loading tube (BD). Fc-labeled CD70 antigen (1:100) was added and incubated for 30 minutes at 4° C. After washing the cells once with PBS, the secondary antibody PE-Fc was added according to the recommended ratio and incubated for 30 minutes in the dark. After the cells were washed once with PBS, the cells were resuspended in 200 μL of PBS and tested on the machine. The results of flow cytometric analysis of CAR-T positive rate are shown by FIG. 16.

[3] = molecular target: T2, CD70-9D8 VHH-huIgG1-Fc (human, UniProt P01857-1 104-330 = IgG part, limits assumed); assay: BLI (Octet K2); biotinylated CD70 on SA probe, VHH-huFc as analyte at 200, 100, 50, 25 nM
T2 construct: domain: IgG1-Fc; Recombinant VHH-huIgG1-Fc made in 293F cells; also called VHH-huFc antibody CD70-9D8
Method: (§1) The affinity of four VHH-huFc antibodies CD70-2A5, CD70-8B4, CD70-9D8, and CD70-11C9 to human CD70 was analyzed by Octet K2 molecular interaction analyzer. The SA probe was immobilized with 200 μL 100 nM biotinylated recombinant human CD70 protein at a height of […]. […] The results are shown by FIG. 8 and Table 4.

[4] = molecular target: T3, CD70-11C9 VHH-huIgG1-Fc (human, UniProt P01857-1 104-330 = IgG part); assay: as above
T3 construct: domain: IgG1-Fc; Recombinant VHH-huIgG1-Fc made in 293F cells; also called VHH-huFc antibody CD70-11C9
Method: as §1

[5] = molecular target: T4, CD70-2A5 VHH-huIgG1-Fc (human, UniProt P01857-1 104-330 = IgG part, limits assumed); assay: as above
T4 construct: domain: IgG1-Fc; Recombinant VHH-huIgG1-Fc made in 293F cells; also called VHH-huFc antibody CD70-2A5
Method: as §1

[6] = molecular target: T5, CD70-8B4 VHH-huIgG1-Fc (human, UniProt P01857-1 104-330 = IgG part, limits assumed); assay: as above
T5 construct: domain: IgG1-Fc; Recombinant VHH-huIgG1-Fc made in 293F cells; also called VHH-huFc antibody CD70-8B4
Method: as §1

[7] = molecular target: T6, recombinant human CD27-his protein (human, UniProt P26842 21-192, limits assumed); assay: ELISA; CD70-alFc coated in 4-fold dilution from 100 ng, 0.1 ug/mL CD27-his in solution, HRP anti-his-tag detection; coated CD70-alFc titrated, CD27-his fixed at 0.1 µg/mL
T6 construct: Bought; also called commercial CD27; recombinant human CD27 protein; not shown: his tag
T6 sequence (looked up): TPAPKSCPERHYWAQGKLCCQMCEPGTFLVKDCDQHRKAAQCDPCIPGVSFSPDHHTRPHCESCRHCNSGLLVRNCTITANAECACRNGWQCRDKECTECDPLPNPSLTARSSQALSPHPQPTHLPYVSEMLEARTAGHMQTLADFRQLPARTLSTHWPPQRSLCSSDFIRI
Method: ELISA activity identification of recombinant human CD70-alFc protein with commercial CD27: recombinant human CD70-alFc protein was coated in a 4-fold gradient dilution package in an ELISA plate, the first well was coated with 100 ng, and sequentially diluted 4-fold (100 uL/well), incubated at 4° C. overnight, washed 3 times with 200 uL PBST the next day, and blocked with 1% BSA/PBS for 1 hour. The blocking solution was removed, 100 μL 0.1 μg/mL recombinant human CD27-his protein was added to each well, and incubated at 37° C. for 1 hour. After washing 3 times with 200 μL PBST, horseradish peroxidase-labeled rabbit anti-his-tag antibody (100 μL per well) diluted 1:4000 was added, and incubated at 37° C. for 1 hour. After washing 3 times with 200 μL PBST, 100 μL TMB chromogen solution was added for development at 37° C. for 10 minutes, 100 μL 1M hydrochloric acid was added to stop the reaction, and the absorbance value at OD₄₅₀ was obtained. The analysis results are shown by FIG. 2 and Table 1.

B4: 2A5-BBz (other)
chimeric antigen receptor chain: EVQLVESGGGLVQAGGSLRLSCAASGSIFSINAMGWYRQAPGKQRELVAAITSGGSTNYADSVKGRFTISRDNAKNTVYLQMNSLKPEDTAVYYCNAGAGRAFPGDYWGQGTQVTVSSTTTPAPRPPTPAPTIASQPLSLRPEACRPAAGGAVHTRGLDFACDIYIWAPLAGTCGVLLLSLVITLYCRFSVVKRGRKKLLYIFKQPFMRPVQTTQEEDGCSCRFPEEEEGGCELRVKFSRSADAPAYQQGQNQLYNELNLGRREEYDVLDKRRGRDPEMGGKPRRKNPQEGLYNELQKDKMAEAYSEIGMKGERRRGKGHDGLYQGLSTATKDTYDALHMQALPPR
notes: also called CD70-2A5-BBz
CD70 CAR+ (positive rate of the cells) [1]: 75.8%
CD70 CAR+ (positive rate of the cells) [2]: 82.4%

B5: 5C10-BBz (other)
chimeric antigen receptor chain: B4 chimeric antigen receptor chain with E1Q, I31M, A60V
notes: also called CD70-5C10-BBz
CD70 CAR+ (positive rate of the cells) [1]: 60%

B7: 8B4-BBz (other)
chimeric antigen receptor chain: EVQLVESGGGFVQPGGSLRLSCAASGFTLDGYAVAWFRQAPGKEREGVSCISSSDGSTYYIDSVQGRFTITRNNAKNTVYLQMNSLKPEDTAVYYCTTDVLTSCRSDRWLEVWGQGTLVTVSSTTTPAPRPPTPAPTIASQPLSLRPEACRPAAGGAVHTRGLDFACDIYIWAPLAGTCGVLLLSLVITLYCRFSVVKRGRKKLLYIFKQPFMRPVQTTQEEDGCSCRFPEEEEGGCELRVKFSRSADAPAYQQGQNQLYNELNLGRREEYDVLDKRRGRDPEMGGKPRRKNPQEGLYNELQKDKMAEAYSEIGMKGERRRGKGHDGLYQGLSTATKDTYDALHMQALPPR
notes: also called CD70-8B4-BBz
CD70 CAR+ (positive rate of the cells) [1]: 72.1%
CD70 CAR+ (positive rate of the cells) [2]: 78.3%

Results, then the binder that gave them:

CD70 CAR+ (positive rate of the cells) [1]: 74.1%
CD70 CAR+ (positive rate of the cells) [2]: 83%
B1: 9D8-BBz (other)
chimeric antigen receptor chain: QLQLVESGGGLVQPGGSLRLSCAVSGRTSSTYAMAWFRQAPGKEREIVAVITWSGGRTAYADSVKGRFTIAKDSAKNTVYLQMNSLKPEDTAVYYCAADSEVSSSSEGQYGYESWGQGTQVTVSSTTTPAPRPPTPAPTIASQPLSLRPEACRPAAGGAVHTRGLDFACDIYIWAPLAGTCGVLLLSLVITLYCRFSVVKRGRKKLLYIFKQPFMRPVQTTQEEDGCSCRFPEEEEGGCELRVKFSRSADAPAYQQGQNQLYNELNLGRREEYDVLDKRRGRDPEMGGKPRRKNPQEGLYNELQKDKMAEAYSEIGMKGERRRGKGHDGLYQGLSTATKDTYDALHMQALPPR
notes: also called CD70-9D8-BBz

CD70 CAR+ (positive rate of the cells) [1]: 72.7%
B2: 8F9-BBz (other)
chimeric antigen receptor chain: QLQLVESGGGLVQAGGSLRLSCAVSGRTSSTYAMAWFRQAPGKEREIVAVIGWSGGRTAYADSVKGRFTIAKDNAKNTVSLQMNSLKPEDTGVYYCAADSEQSSSSEGQAYGYEDWGQGTLVTVSSTTTPAPRPPTPAPTIASQPLSLRPEACRPAAGGAVHTRGLDFACDIYIWAPLAGTCGVLLLSLVITLYCRFSVVKRGRKKLLYIFKQPFMRPVQTTQEEDGCSCRFPEEEEGGCELRVKFSRSADAPAYQQGQNQLYNELNLGRREEYDVLDKRRGRDPEMGGKPRRKNPQEGLYNELQKDKMAEAYSEIGMKGERRRGKGHDGLYQGLSTATKDTYDALHMQALPPR
notes: also called CD70-8F9-BBz

CD70 CAR+ (positive rate of the cells) [1]: 51.3%
CD70 CAR+ (positive rate of the cells) [2]: 70.9%
B3: 11C9-BBz (other)
chimeric antigen receptor chain: QVQLVESGGGLVQPGGSLRLSCAASGFTLDYYAVGWFRQAPGKEREGVSCISSSSDGSTYYVDSVLGRFTISRNNAENTVYLQMNSLKPEDTAVYYCSTDVLTSCRSDRYLEVWGQGTLVTVSGTTTPAPRPPTPAPTIASQPLSLRPEACRPAAGGAVHTRGLDFACDIYIWAPLAGTCGVLLLSLVITLYCRFSVVKRGRKKLLYIFKQPFMRPVQTTQEEDGCSCRFPEEEEGGCELRVKFSRSADAPAYQQGQNQLYNELNLGRREEYDVLDKRRGRDPEMGGKPRRKNPQEGLYNELQKDKMAEAYSEIGMKGERRRGKGHDGLYQGLSTATKDTYDALHMQALPPR
notes: also called CD70-11C9-BBz

Kd [3]: 1830 pM
koff [3]: 0.000235 s⁻¹
kon [3]: 129000 M⁻¹ s⁻¹
Kd [4]: < 1 pM
koff [4]: < 1e-07 s⁻¹
kon [4]: 264000 M⁻¹ s⁻¹
Kd [5]: < 1 pM
koff [5]: < 1e-07 s⁻¹
kon [5]: 36700 M⁻¹ s⁻¹
Kd [6]: < 1 pM
koff [6]: < 1e-07 s⁻¹
kon [6]: 45500 M⁻¹ s⁻¹
B6: biotinylated recombinant human CD70 protein (ligand, UniProt P32970 39-193, looked up)
chain: QRFAQAQQQLPLESLGWDVAELQLNHTGPQQDPRLYWQGGPALGRSFLHGPELDKGQLRIHRDGIYMVHIQVTLAICSSTTASRHHPTTLAVGICSPASRSISLLRLSFHQGCTIASQRLTPLARGDTLCTNLTGTLLPSRNTDETFFGVQWVRP
modifications: biotin on the avi-tag
notes: also called biotinylated CD70 protein; biotinylated CD70 recombinant protein; not shown: avi-tag (and any other tag or Fc)

EC50 [7]: 8.69 ng/mL
B8: recombinant human CD70-alFc protein (Fc fusion)
chain: QRFAQAQQQLPLESLGWDVAELQLNHTGPQQDPRLYWQGGPALGRSFLHGPELDKGQLRIHRDGIYMVHIQVTLAICSSTTASRHHPTTLAVGICSPASRSISLLRLSFHQGCTIASQRLTPLARGDTLCTNLTGTLLPSRNTDETFFGVQWVRPELKTPQPQSQPECRCPKCPAPELLGGPSVFIFPPKPKDVLSISGRPEVTCVVVDVGQEDPEVSFNWYIDGAEVRTANTKPKEEQFNSTYRVVSVLPIRHQDWLTGKEFKCKVNNKALPAPIERTISKAKGQTREPQVYALAPHREELAKDTVSVTCLVKDFYPVDINIEWQRNGQPESEGTYATTPPQLDNDGTYFLYSKLSVGKNTWQRGETFTCVVMHEALPNHYTQKSITQSSGK
notes: range 39-193; Made in 293T cells; also called CD70-alIgG1Fc fusion protein; recombinant human CD70 protein
